Several values for one entry are separate records, joined by “and”; a condition that tells them apart may be missing. Identical values can stand only once.

In data set [1] the test system is mouse fibroblast/encephalomyocarditis virus (L929/EMCV). In words: Specific activity by mouse fibroblast/encephalomyocarditis virus (L929/EMCV) cytopathic inhibition method. Conditions: stock solution; commercial mIFN-α4 (R&D) as the standard. The class given is cell-based. On the procedure:
The bacterial endotoxin content of the deglycosylated mIFN-α4 stock solution was determined by the Limulus reagent method as lower than 60 EU/mg. specific activity was determined as 5.4×10^8 U/mg by using the commercial mIFN-α4 (R&D, catalog number 12115-1) as the standard, and by using the mouse fibroblast/encephalomyocarditis virus (L929/EMCV) cytopathic inhibition method.
The bacterial endotoxin content of the PEG-mIFN-α4 stock solution was determined by the Limulus reagent method as lower than 15 EU/mg. Specific activity was determined as 6.1×10^6 U/mg by using the commercial mIFN-α4 (R&D, catalog number 12115-1) as the standard, and by using the mouse fibroblast/encephalomyocarditis virus (L929/EMCV) cytopathic inhibition method.
(Cytopathic effects are the visible damage that an infection or toxin causes in cultured cells.)

For data set [2], the system named is transplanted colorectal cancer CT26. Put plainly: Interferon combined with gemcitabine, transplanted colorectal cancer CT26 in mice (Example 7). Conditions: 110 days observation. The format is in vivo, BALB/c mice. On the procedure: In this example, a comparative study on the efficacy of PEG-mIFN-α4 intermittent administration (once every 48 hours for three consecutive times, then drug withdrawal for 144 hours; for 11 rounds), PEG-mIFN-α4 continuous administration (once every 48 hours for 55 consecutive times), PEG-mIFN-α4 in combination with gemcitabine (PEG-mIFN-α4: once every 48 hours for three consecutive times, then drug withdrawal for 240 hours, 8 rounds; gemcitabine: once a week) on transplanted colorectal cancer CT26 in mice was performed.
The anticancer agent is Gemcitabine (Jiangsu HAOSEN Pharmaceutical).
(§1) On the day when the tumor was inoculated, they were randomly divided into PEG-mIFN-α4 continuous administration group (N=24, female 12, male 12), PEG-mIFN-α4 intermittent administration group (N=24, female 12, male 12), the normal saline control group (N=24, female 12, male 12), the gemcitabine only group (N=24, female 12, male 12), and PEG-mIFN-α4 combined with gemcitabine group (N=24, female 12, male 12).
Gemcitabine was injected intraperitoneally, 60 mg/kg. […] For the PEG-mIFN-α4 intermittent administration group, PEG-mIFN-α4 was administered once every 48 hours for three consecutive times, then drug withdrawal for 144 hours; for 11 rounds. For the PEG-mIFN-α4 continuous administration group, PEG-mIFN-α4 was administered once every 48 hours. For the PEG-mIFN-α4 combined with gemcitabine group, PEG-mIFN-α4 was administered once every 48 hours for three consecutive times, then drug withdrawal for 240 hours; for 8 rounds; and gemcitabine was administered once a week. For the gemcitabine only group, gemcitabine was administered once a week. For the saline control group, equal volume of saline was administered.
Survival analysis was performed for all groups to compare the differences between groups.

Data set [3] deals with transplanted melanoma B16. Put plainly: Interferon combined with gemcitabine, transplanted melanoma B16 in mice (Example 8). The format is in vivo, C57BL/6N mice. How it is done: In this example, a comparative study on the efficacy of PEG-mIFN-α4 intermittent administration (once every 48 hours for 3 consecutive times, then drug withdrawal for 240 hours; for 4 rounds), PEG-mIFN-α4 continuous administration (once every 48 hours for 24 consecutive times), PEG-mIFN-α4 in combination with gemcitabine (PEG-mIFN-α4: once every 48 hours for 3 consecutive times, then drug withdrawal for 240 hours, 4 rounds; gemcitabine: once a week) on transplanted melanoma B16 in mice was performed.
On the day when the tumor was inoculated, they were randomly divided into PEG-mIFN-α4 continuous administration group (N=28, female 14, male 14), PEG-mIFN-α4 intermittent administration group (N=28, female 14, male 14), the normal saline control group (N=28, female 14, male 14), the gemcitabine only group (N=28, female 14, male 14), and PEG-mIFN-α4 combined with gemcitabine group (N=28, female 14, male 14).
For the PEG-mIFN-α4 intermittent administration group, PEG-mIFN-α4 was administered once every 48 hours for 3 consecutive times, then drug withdrawal for 240 hours; for 4 rounds. For the PEG-mIFN-α4 continuous administration group, PEG-mIFN-α4 was administered once every 48 hours. For the PEG-mIFN-α4 combined with gemcitabine group, PEG-mIFN-α4 was administered once every 48 hours for 3 consecutive times, then drug withdrawal for 240 hours; for 4 rounds; and gemcitabine was administered once a week. For the gemcitabine only group, gemcitabine was administered once a week. For the saline control group, equal volume of saline was administered. Gemcitabine was injected intraperitoneally, 60 mg/kg.
(§2) SAS9.4 software was used for comparing the difference in mortality, and the statistical tests were all two-sided tests.

Data set [4] relates to transplanted breast cancer 4T1. In words: Interferon combined with gemcitabine, transplanted breast cancer 4T1 in mice (Example 9). The class given is in vivo, BALB/c mice. Conditions: 53 days after tumor inoculation. On the procedure: In this example, a comparative study on the efficacy of PEG-mIFN-α4 intermittent administration (once every 48 hours for 3 consecutive times, then drug withdrawal for 144 hours; for 5 rounds), PEG-mIFN-α4 continuous administration (once every 48 hours for 25 consecutive times), PEG-mIFN-α4 in combination with gemcitabine (PEG-mIFN-α4: once every 48 hours for 3 consecutive times, then drug withdrawal for 240 hours, 4 rounds; gemcitabine: once a week) on transplanted breast cancer 4T1 in mice was performed.
as §1
For the PEG-mIFN-α4 intermittent administration group, PEG-mIFN-α4 was administered once every 48 hours for 3 consecutive times, then drug withdrawal for 144 hours; for 5 rounds. For the PEG-mIFN-α4 continuous administration group, PEG-mIFN-α4 was administered once every 48 hours. For the PEG-mIFN-α4 combined with gemcitabine group, PEG-mIFN-α4 was administered once every 48 hours for 3 consecutive times, then drug withdrawal for 240 hours; for 4 rounds; and gemcitabine was administered once a week. For the gemcitabine only group, gemcitabine was administered once a week. For the saline control group, equal volume of saline was administered. Gemcitabine was injected intraperitoneally, 60 mg/kg.
as §2

B1: PEG-mIFN-α4: deglycosylated recombinant mouse interferon α4 modified with 40 kD Y-type polyethylene glycol (YPEG-NHS); SEQ ID NO: 6 (protein)
chain: CDLPHTYNLGNKRALTVLEEMRRLPPLSCLKDRKDFGFPLEKVDNQQIQKAQAILVLRDLTQQILNLFTSKDLSATWNATLLDSFCNDLHQQLNDLKACVMQEPPLTQEDSLLAVRTYFHRITVYLRKKKHSLCAWEVIRAEVWRALSSSTNLLARLSEEKE
modifications: 40 kD Y-type PEG; deglycosylated; amino acid sequence of peginterferon murine 4
In the case of B1, the Specific activity in data set [1] was 6.1×10^6 U/mg. Also, the “Mean survival period (days post tumor inoculation)” value in data set [2] (continuous administration: once every 48 hours, 55 times) is 53.5 days; in data set [2] (intermittent administration: 1 μg/mouse every 48 h x3, withdrawal 144 h, 11 rounds), 89.0 days. Moreover, the Mortality is 100% in data set [3] (continuous administration (once every 48 hours), 46 days after tumor inoculation); 100% in data set [3] (continuous administration (once every 48 hours, 24 times), Table 7, day not printed for this cell (footnotes: Day 46 / Day 48)); 39.3% in data set [3] (intermittent administration (every 48 h x3, withdrawal 240 h, 4 rounds), 46 days after tumor inoculation); 46.4% in data set [3] (intermittent administration (every 48 h x3, withdrawal 240 h, 4 rounds), 48 days after tumor inoculation); 87.5% and 58.3% in data set [4] (continuous administration (once every 48 hours, 25 times)); 87.5% in data set [4] (intermittent administration (every 48 h x3, withdrawal 144 h, 5 rounds)).

Values taken from patent US20230270824A1, “INTERFERON-BASED CANCER TREATMENT METHOD AND PHARMACEUTICAL COMPOSITION” (XIAMEN AMOYTOP BIOTECH CO., LTD., priority 2019, published 2023).
